pKd: −log10 of the molar value.
Biological target: Calmodulin (His-CaM) (UniProt P0DP23)
Assay: BLI; ForteBio Octet Red; increasing concentrations of ASPM IQ motif (GST-IQ) to CaM; 1:1 binding model; Kd calculated as Koff/Kon

| fold increase of Kd against T. truncatus | pKd | Substance |
| --- | --- | --- |
| 2.2 fold | – | GST-IQ fusion protein, ASPM 23rd IQ motif and its adjacent 16 amino acid motif, Physeter macrocephalus (domain or fragment) |
| – | 7.75 | GST-IQ fusion protein, ASPM 23rd IQ motif and its adjacent 16 amino acid motif, Tursiops truncatus (domain or fragment) |

Reference: publication PMC5576371
